# Experimental data reported in FireProtDB.
# B1: Phosphoglycerate kinase, P00560 (parent)
# chain: MSLSSKLSVQDLDLKDKRVFIRVDFNVPLDGKKITSNQRIVAALPTIKYVLEHHPRYVVLASHLGRPNGERNEKYSLAPVAKELQSLLGKDVTFLNDCVGPEVEAAVKASAPGSVILLENLRYHIEEEGSRKVDGQKVKASKEDVQKFRHELSSLADVYINDAFGTAHRAHSSMVGFDLPQRAAGFLLEKELKYFGKALENPTRPFLAILGGAKVADKIQLIDNLLDKVDSIIIGGGMAFTFKKVLENTEIGDSIFDKAGAEIVPKLMEKAKAKGVEVVLPVDFIIADAFSADANTKTVTDKEGIPAGWQGLDNGPESRKLFAATVAKAKTIVWNGPPGVFEFEKFAAGTKALLDEVVKSSAAGNTVIIGGGDTATVAKKYGVTDKISHVSTGGGASLELLEGKELPGVAFLSEKK
# B2: Amicyanin, P22364 (parent)
# chain: MISATKIRSCLAACVLAAFGATGALADKATIPSESPFAAAEVADGAIVVDIAKMKYETPELHVKVGDTVTWINREAMPHNVHFVAGVLGEAALKGPMMKKEQAYSLTFTEAGTYDYHCTPHPFMRGKVVVE
# B3: chitinase, Q54276 (parent)
# chain: MSTRKAVIGYYFIPTNQINNYTETDTSVVPFPVSNITPAKAKQLTHINFSFLDINSNLECAWDPATNDAKARDVVNRLTALKAHNPSLRIMFSIGGWYYSNDLGVSHANYVNAVKTPASRAKFAQSCVRIMKDYGFDGVDIDWEYPQAAEVDGFIAALQEIRTLLNQQTITDGRQALPYQLTIAGAGGAFFLSRYYSKLAQIVAPLDYINLMTYDLAGPWEKVTNHQAALFGDAAGPTFYNALREANLGWSWEELTRAFPSPFSLTVDAAVQQHLMMEGVPSAKIVMGVPFYGRAFKGVSGGNGGQYSSHSTPGEDPYPSTDYWLVGCEECVRDKDPRIASYRQLEQMLQGNYGYQRLWNDKTKTPYLYHAQNGLFVTYDDAESFKYKAKYIKQQQLGGVMFWHLGQDNRNGDLLAALDRYFNAADYDDSQLDMGTGLRYTGVGPGNLPIMTAPAYVPGTTYAQGALVSYQGYVWQTKWGYITSAPGSDSAWLKVGRVA
# B4: Phosphocarrier protein HPr, P08877 (parent)
# chain: MAQKTFKVTADSGIHARPATVLVQTASKYDADVNLEYNGKTVNLKSIMGVMSLGIAKGAEITISASGADENDALNALEETMKSEGLGE
# B5: T-cell surface antigen CD2, P08921 (parent)
# chain: MRCKFLGSFFLLFSLSSKGADCRDSGTVWGALGHGINLNIPNFQMTDDIDEVRWERGSTLVAEFKRKMKPFLKSGAFEILANGDLKIKNLTRDDSGTYNVTVYSTNGTRILNKALDLRILEMVSKPMIYWECSNATLTCEVLEGTDVELKLYQGKEHLRSLRQKTMSYQWTNLRAPFKCKAVNRVSQESEMEVVNCPEKGLPLYLIVGVSAGGLLLVFFGALFIFCICKRKKRNRRRKGEELEIKASRMSTVERGPKPHSTQASAPASQNPVASQAPPPPGHHLQTPGHRPLPPSHRNREHQPKKRPPPSGTQVHQQKGPPLPRPRVQPKPPCGSGDVSLPPPN
# B6: Elongation factor Ts, P43895 (parent)
# chain: MSQMELIKKLREATGAGMMDVKRALEDAGWDEEKAVQLLRERGAMKAAKKADREAREGIIGHYIHHNQRVGVLVELNCETDFVARNELFQNLAKDLAMHIAMMNPRYVSAEEIPAEELEKERQIYIQAALNEGKPQQIAEKIAEGRLKKYLEEVVLLEQPFVKDDKVKVKELIQQAIAKIGENIVVRRFCRFELGA
# B7: Cyanovirin-N, P81180 (parent)
# chain: LGKFSQTCYNSAIQGSVLTSTCERTNGGYNTSSIDLNSVIENVDGSLKWQPSNFIETCRNTQLAGSSELAAECKTRAQQFVSTKINLDDHIANIDGTLKYE
# B8: E188K|A142V|H125Y, Q88HV5 (parent)
# chain: MPFQQGLLATPVPAHARHLFFTLQSPEALPAALDALLPQVDGKQLLLGVGAPLAKALGREIPGLRPFPLLDAAVENPSTQHALWLWLRGDERGDLLLRTQALEQALAPALSLADSVDGFLHRGGHDLTGYEDGTENPTDEEAVQAAIAADGSSFAAFQLWKHDLQYFKSLPQADQDNIIGRRLSDNEELDDAPASAHVKRTAQESFEPEAFMVRRSVSWADQRGAGLAFVALGKSFEAFEVQLRRMSGLEDGIIDGLYRFSRPLTGGYYWCPPMSETGVDLSPLLRA
# B9: SNARE-associated protein Snapin, O95295 (parent)
# chain: MAGAGSAAVSGAGTPVAGPTGRDLFAEGLLEFLRPAVQQLDSHVHAVRESQVELREQIDNLATELCRINEDQKVALDLDPYVKKLLNARRRVVLVNNILQNAQERLRRLNHSVAKETARRRAMLDSGIYPPGSPGK
# B10: Tissue factor, P13726 (parent)
# chain: METPAWPRVPRPETAVARTLLLGWVFAQVAGASGTTNTVAAYNLTWKSTNFKTILEWEPKPVNQVYTVQISTKSGDWKSKCFYTTDTECDLTDEIVKDVKQTYLARVFSYPAGNVESTGSAGEPLYENSPEFTPYLETNLGQPTIQSFEQVGTKVNVTVEDERTLVRRNNTFLSLRDVFGKDLIYTLYYWKSSSSGKKTAKTNTNEFLIDVDKGENYCFSVQAVIPSRTVNRKSTDSPVECMGQEKGEFREIFYIIGAVVFVVIILVIILAISLHKCRKAGVGQSWKENSPLNVS
# Variants of: B1
# Conditions: Saccharomyces cerevisiae (strain ATCC 204508 / S288c); pH 6.2; 20 °C; GdnHCl; CD; potassium phosphate 50 mM; structure 3PGK; whole UniProt chain shown
Variant,denaturant m value [kcal/mol/M],unfolding free energy [kcal/mol]
W309F,18,10.3
W309F W334F Y123W,14,5.71

# Same assay, conditions: Saccharomyces cerevisiae (strain ATCC 204508 / S288c); pH 6.2; 20 °C; Thermal; CD; potassium phosphate 20 mM; structure 3PGK; whole UniProt chain shown
row,Variant,unfolding free energy [kcal/mol]
1,W309F,5.43
2,W334F,5.16
3,W309F W334F Y123W,5.23

# Same assay, conditions: Saccharomyces cerevisiae (strain ATCC 204508 / S288c); pH 6.5; 25 °C; GdnHCl; CD; Sodium phosphate 20 mM; reversible: yes; structure 3PGK; whole UniProt chain shown
Variant,ddG of mutation (higher = less stable) [kcal/mol],denaturant m value [kcal/mol/M],unfolding free energy [kcal/mol]
H389Q,0.84,6.08,2.99

# Same assay, conditions: Saccharomyces cerevisiae (strain ATCC 204508 / S288c); pH 7.5; 22 °C; GdnHCl; CD; Tris 20 mM; structure 3PGK; whole UniProt chain shown
Variant,ddG of mutation (higher = less stable) [kcal/mol],denaturant midpoint (higher = more stable) [M],unfolding free energy [kcal/mol]
W334F,-2.2,0.64,10

# Variants of: B2
# Conditions: Paracoccus denitrificans; pH 7.5; Thermal; absorbance; Potassium Phosphate Buffer 10 mM; structure 2OV0; whole UniProt chain shown
row,Variant,Tm [°C]
1,W71Y,53.9

# Variants of: B3
# Conditions: Serratia marcescens; pH 8; Thermal; CD; sodium phosphate 20 mM; reversible: No; structure 1E6N; whole UniProt chain shown
Variant,Tm [°C],"change of melting temperature, mutant - wild type (higher = more stable) [°C]"
G188A A234P,64.1,4.2

# Variants of: B4
# Conditions: Bacillus subtilis (strain 168); pH 7; 30 °C; Urea; CD; Potassium phosphate 50 mM; reversible: yes; structure 2HPR; whole UniProt chain shown
Variant,ddG of mutation (higher = less stable) [kcal/mol],denaturant midpoint (higher = more stable) [M]
S46D,-0.74,4.63

# Same assay, conditions: Bacillus subtilis (strain 168); pH 7; 73.6 °C; Thermal; CD; Potassium phosphate 50 mM; reversible: yes; structure 2HPR; whole UniProt chain shown
row,Variant,ddG of mutation (higher = less stable) [kcal/mol]
1,S46D,-0.7

# Variants of: B5
# Conditions: Rattus norvegicus; pH 5; 25 °C; Urea; Fluorescence; Sodium acetate 50 mM; reversible: yes; structure 1HNG; whole UniProt chain shown
row,Variant,ddG of mutation (higher = less stable) [kcal/mol]
1,Y98F,-1.49

# Variants of: B6
# Conditions: Thermus thermophilus (strain ATCC 27634 / DSM 579 / HB8); pH 7; Thermal; CD; Phosphate 10 mM; reversible: No; structure 1TFE; whole UniProt chain shown
Variant,Tm [°C],"change of melting temperature, mutant - wild type (higher = more stable) [°C]"
C190A,105,-10

# Variants of: B7
# Conditions: Nostoc ellipsosporum; pH 6; Thermal; CD; Sodium phosphate 10 mM; structure 1N02; whole UniProt chain shown
Variant,Tm [°C],"change of melting temperature, mutant - wild type (higher = more stable) [°C]"
P51G,50.2,1.7

# Variants of: B8
# Conditions: Pseudomonas putida (strain ATCC 47054 / DSM 6125 / CFBP 8728 / NCIMB 11950 / KT2440); pH 7.6; Fluorescence spectroscopy; whole UniProt chain shown
row,Variant,Tm [°C]
1,E188K A142V H125Y,59
2,E188K H125Y,61

# Variants of: B9
# Conditions: Homo sapiens; pH 7; Thermal; absorbance; Phosphate buffer; transition: 2; reversible: yes; whole UniProt chain shown
Variant,Tm [°C],"change of melting temperature, mutant - wild type (higher = more stable) [°C]"
C66S,72.4,1.4

# Same assay, conditions: Homo sapiens; pH 7.4; Thermal; CD; Tris 50 mM; whole UniProt chain shown
Variant,Tm [°C],"change of melting temperature, mutant - wild type (higher = more stable) [°C]"
C66S,60.1,2.2

# Variants of: B10
# Conditions: Homo sapiens; pH 7.5; 23 °C; GdnHCl; Fluorescence; Tris-HCl 50 mM; reversible: yes; structure 1BOY; whole UniProt chain shown
Variant,ddG of mutation (higher = less stable) [kcal/mol],denaturant midpoint (higher = more stable) [M],unfolding free energy [kcal/mol]
R232W,-0.6,1.37,6.9
